In paper PMC314469, “Protein Interaction Networks by Proteome Peptide Scanning” (PLoS Biology, 2004):

How the values were obtained:
[1] = molecular target: T1, amphyphisin SH3 (AMPH_HUMAN), P49418; assay: SPOT array
T1 chain: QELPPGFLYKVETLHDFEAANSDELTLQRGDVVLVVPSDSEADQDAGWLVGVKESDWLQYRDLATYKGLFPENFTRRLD

[2] = molecular target: endophilin SH3 (SH3G2_HUMAN), Q99962; assay: SPOT array

| Binder | normalised SPOT signal, Boehringer light units (BLU); mean over the file's lines of this peptide [1] | normalised SPOT signal, Boehringer light units (BLU); mean over the file's lines of this peptide [2] |
| --- | --- | --- |
| ALSHFRRPDVSVQG [Q06265 140-153] | 19.7 | 50.3 |
| GKNRPLRPSRRRQL [Q9H5Z2 504-517] | 7430 | 1860 |
| GKPNPRRPKDKMSA [O95985 843-856] | 13.6 | 87.3 |
| GKRPIKRPAYWRTE [Q9HAH2 675-688] | 3.7 | 12.8 |
| GKSHPKRPNSQSQH [Q9H6W1 84-97] | 45.5 | 0 |
| GKVVPLRPPPPPKS [Q9UHN6 29-43] | 499 | 9090 |
| GLEVPRRPGARTGP [Q9P1Z1 1-14] | 29.7 | 626 |
| GLGELLRPYRSASS [Q14526 480-493] | 367 | 112 |
| GLGGPQKPPPHTEP [Q9H4M7 492-506] | 40.1 | 79.9 |
| GLGSPERPPKTSPG [Q9H6F5 54-68] | 122 | 508 |
| GLLLLPRPGRPLDL [P13497 12-25] | 97.6 | 88.4 |
| ALHVPAKPPRAAAA [Q8WXD9 1334-1348] | 4080 | 526 |
| GLLSLRRPAPRRLE [Q9HCE9 329-342] | 13.3 | 504 |
| GLPAPLRPERLAPV [O94850 125-138] | 2410 | 1890 |
| GLRRPEKPPYSYIA [Q12947 93-107] | 34.9 | 285 |
| GLSGLKRPSSSAST [Q9P2Q0 476-489] | 32.5 | 34.9 |
| GLSGPSRPPPPPQA [Q9UEE5 25-39] | 78.2 | 2950 |
| AAMHPRRPDGFDGL [Q04197 18-31] | 53.6 | 14.1 |
| GLSTLQRPLKDVTD [Q9H4V5 197-210] | 108 | 90.7 |
| GLWLPRRPARSVGS [Q9H427 273-286] | 8350 | 1850 |
| GMEKIWRPNRVFSL [O60795 134-147] | 1120 | 175 |

| Binder | normalised SPOT signal, Boehringer light units (BLU); mean over the file's lines of this peptide [1] | normalised SPOT signal, Boehringer light units (BLU); mean over the file's lines of this peptide [2] |
| --- | --- | --- |
| GNAGPRRPPGDPST [Q9C095 222-236] | 37.1 | 75.8 |
| GNANIQRPSRKSVN [Q9NRA6 251-264] | 3260 | 166 |
| ALKQLDRPEKGLSE [O14646 1427-1440] | 42.4 | 295 |
| GNDDPRRPSRSPPS [O15085 1403-1416] | 2210 | 306 |
| GNIELKRPLIKAPS [Q9BW19 13-26] | 25.9 | 28.8 |
| GNLDIQRPKRKRKN [Q12972 185-198] | 2140 | 48.7 |
| GPAGLRRPPDKQPS [Q96CI4 37-50] | 27.8 | 383 |
| GPAGPKRPVFILGE [O60307 800-813] | 9.6 | 259 |
| GPAPLRRPDSSDDR [Q9Y687 56-69] | 46.8 | 45.8 |
| GPAPPPRPPQLERH [BAC05410 275-289] | 1000 | 10700 |
| GPERPKRPGSLLAP [Q9HCE9 774-787] | 2440 | 12300 |
| GPGKPERPPPQGGD [P81489 112-126] | 33.9 | 193 |
| GPILPKKPPVKPPT [Q9ULW0 414-428] | 44.6 | 1800 |
| ALLDPRRPEIPTEQ [Q9NUC1 730-743] | 26.1 | 36.9 |
| GPLDLRRPMRTVPG [Q96SD2 167-180] | 1070 | 972 |
| GPLGLRRPPSASSD [Q01167 591-604] | 11.4 | 116 |
| GPPPPPRPPFGRPP [O14776 57-71] | 1370 | 5310 |
| GPPSPRRPLVPAGP [O00268 106-119] | 20.9 | 2840 |
| GPQRPRRPAKDAQP [Q12984 78-91] | 8400 | 10700 |
| GPRPPPRPARHRSH [Q9P0U7 35-48] | 13100 | 28600 |
| GPSPPYRPEKLSSP [Q13495 380-393] | 243 | 684 |
